Square brackets hold non-standard residues; d marks the D form. Ends that are not written are not given here. * marks the point of attachment. 5FAM = O=C1OC2(c3ccc(O)cc3Oc3cc(O)ccc32)c2ccc(C(=O)*)cc21; Abu = CC[C@H](N)C(=O)O
What was measured:
[1] = biological target: T1, Human XIAP BIR3-only (residues 241-356) with N-terminal 6x His tag (human, UniProt P98170 241-356); test: fluorescence polarization, tracer binding to XIAP BIR3
T1 construct: range 241-356; Recombinant, produced in E. coli BL21(DE3); also called XIAP BIR3 protein; not shown: N-terminal 6x His tag from pET28 vector
T1 sequence (P98170 241-356): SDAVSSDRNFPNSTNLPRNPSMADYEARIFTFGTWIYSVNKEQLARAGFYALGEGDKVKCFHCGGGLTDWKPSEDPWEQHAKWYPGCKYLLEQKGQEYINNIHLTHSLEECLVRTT
Text: The FP-based assay for XIAP BIR3 protein was described in detail previously (Nikolovska-Coleska et al., Anal. Biochem. 332:261-73 (2004)). Briefly, 5-carboxyfluorescein was coupled to the lysine side chain of a mutated Smac peptide with the sequence (AbuRPFK-Fam) and this fluorescently tagged peptide (named SM5F) was used as the fluorescent tracer in FP-based binding assay to XIAP BIR3.

[2] = biological target: T2, Human cIAP2 BIR3-only (residues 238-349) (human, UniProt Q13489 238-349); test: fluorescence polarization, tracer binding to cIAP-2 BIR3
T2 construct: range 238-349; Cloned into pHis-TEV vector, produced and purified as for XIAP BIR3; also called cIAP-2 BIR3 protein; not shown: tag from pHis-TEV vector
T2 sequence (Q13489 238-349): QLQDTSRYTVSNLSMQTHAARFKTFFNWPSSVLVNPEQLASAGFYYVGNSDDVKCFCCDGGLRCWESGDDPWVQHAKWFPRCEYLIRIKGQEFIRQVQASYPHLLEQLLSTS

[3] = biological target: T3, Human cIAP-1 BIR3-only (residues 253-363) (human, UniProt Q13490 253-363); test: fluorescence polarization, tracer binding to cIAP-1 BIR3
T3 construct: range 253-363; Cloned into pHis-TEV vector, produced and purified as for XIAP BIR3; also called cIAP-1 BIR3 protein; not shown: tag from pHis-TEV vector
T3 sequence (Q13490 253-363): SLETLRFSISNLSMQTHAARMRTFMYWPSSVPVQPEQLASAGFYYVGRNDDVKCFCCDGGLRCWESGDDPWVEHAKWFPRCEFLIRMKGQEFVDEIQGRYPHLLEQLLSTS

Kd [1]: 17.9 nM | Kd [2]: 6.6 nM | Kd [3]: 4.1 nM
B1: SM5F, fluorescently tagged mutated Smac peptide (AbuRPFK-Fam) (peptide)
peptide: [Abu]RPFK(5FAM)
notes: Mutated Smac N-terminal peptide used as tracer in the FP assays; also called fluorescent tracer

From patent US20120263675A1 (REGENTS OF THE UNIVERSITY OF MICHIGAN, published 2012)
